Test results from IntAct's records for PubMed 15744310.

B1: NAD-dependent protein deacetylase sirtuin-1 (Mus musculus), Q923E4 (parent)
chain: MADEVALALQAAGSPSAAAAMEAASQPADEPLRKRPRRDGPGLGRSPGEPSAAVAPAAAGCEAASAAAPAALWREAAGAAASAEREAPATAVAGDGDNGSGLRREPRAADDFDDDEGEEEDEAAAAAAAAAIGYRDNLLLTDGLLTNGFHSCESDDDDRTSHASSSDWTPRPRIGPYTFVQQHLMIGTDPRTILKDLLPETIPPPELDDMTLWQIVINILSEPPKRKKRKDINTIEDAVKLLQECKKIIVLTGAGVSVSCGIPDFRSRDGIYARLAVDFPDLPDPQAMFDIEYFRKDPRPFFKFAKEIYPGQFQPSLCHKFIALSDKEGKLLRNYTQNIDTLEQVAGIQRILQCHGSFATASCLICKYKVDCEAVRGDIFNQVVPRCPRCPADEPLAIMKPEIVFFGENLPEQFHRAMKYDKDEVDLLIVIGSSLKVRPVALIPSSIPHEVPQILINREPLPHLHFDVELLGDCDVIINELCHRLGGEYAKLCCNPVKLSEITEKPPRPQKELVHLSELPPTPLHISEDSSSPERTVPQDSSVIATLVDQATNNNVNDLEVSESSCVEEKPQEVQTSRNVENINVENPDFKAVGSSTADKNERTSVAETVRKCWPNRLAKEQISKRLEGNQYLFVPPNRYIFHGAEVYSDSEDDVLSSSSCGSNSDSGTCQSPSLEEPLEDESEIEEFYNGLEDDTERPECAGGSGFGADGGDQEVVNEAIATRQELTDVNYPSDKS
partner: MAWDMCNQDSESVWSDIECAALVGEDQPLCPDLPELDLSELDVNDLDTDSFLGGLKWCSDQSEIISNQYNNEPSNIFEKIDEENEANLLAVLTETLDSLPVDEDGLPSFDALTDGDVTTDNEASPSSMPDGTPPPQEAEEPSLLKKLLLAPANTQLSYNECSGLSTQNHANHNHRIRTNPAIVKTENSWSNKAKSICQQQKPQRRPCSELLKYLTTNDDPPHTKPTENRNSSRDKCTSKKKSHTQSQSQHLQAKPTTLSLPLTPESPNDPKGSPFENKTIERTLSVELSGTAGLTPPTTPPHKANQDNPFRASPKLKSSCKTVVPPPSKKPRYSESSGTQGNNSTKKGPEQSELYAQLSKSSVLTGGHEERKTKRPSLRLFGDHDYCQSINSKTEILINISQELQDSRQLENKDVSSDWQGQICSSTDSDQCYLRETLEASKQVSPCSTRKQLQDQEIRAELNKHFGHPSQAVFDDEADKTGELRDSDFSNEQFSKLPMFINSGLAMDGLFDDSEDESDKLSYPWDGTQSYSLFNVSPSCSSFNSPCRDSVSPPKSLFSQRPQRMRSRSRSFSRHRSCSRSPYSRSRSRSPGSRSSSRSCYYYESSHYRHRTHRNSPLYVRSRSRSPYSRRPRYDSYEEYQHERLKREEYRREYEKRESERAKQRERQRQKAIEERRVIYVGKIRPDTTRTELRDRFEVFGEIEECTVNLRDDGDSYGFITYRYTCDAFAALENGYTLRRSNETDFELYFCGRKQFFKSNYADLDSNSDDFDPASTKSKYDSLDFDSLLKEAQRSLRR

Variants of: B1
Settings: with prgc1_human PPARGC1A

| effect of a mutation on the interaction | Variant |
| --- | --- |
| decreasing interaction | H355A |
